Assay results: publication PMC11306256

B1: GST-tagged recombinant Xenopus APE1, wild type [Xenopus laevis] / itself (parent)
chain: MPKRGKKEEVCAAEPQEDGNEPEVKKGKKGAGKAAKEPEPVVLYEDAPDNVTSADGKKYTLKISSWNVDGIRAWIKKQGLNWVREEDPHIMCLQEIKCAEKLLPPDVKDMPEYPHKYWACPDEKEGYSGVAMLCKDKPLNVTYGIGIEEHDKEGRVITAEFDSFFVIAAYIPNSSRGLVRLDYRQRWDVDFRAYLKGLDSKKPLILCGDLNVAHQEIDLKNPKTNKKTPGFTPQERQGFGELLAEGYLDSFRELYPDKPSAYTFWTYMMNARAKNVGWRLDYFVLSKALRPALCDCKIRSKVMGSDHCPITLLMAI

Variants of: B1
Experiment: sucrose density gradient sedimentation, quantified immunoblot (self-association / oligomerization)
Details: with itself; fraction #3 (low-mass peak, co-sediments with 75kD Conalbumin); n = 3; parent: 17; read off a plot

Variant	percent of protein in gradient fraction [%]
chain 1 K25A K26A K33A	23

Same assay, conditions: with itself; fraction #7 (high-mass oligomer peak of WT); n = 3; parent: 16; read off a plot

Variant	percent of protein in gradient fraction [%]
chain 1 K25A K26A K33A	6
